# Experimental data taken from patent publication US20230372419A1, “LIVE BIOTHERAPEUTICS SECRETING SYNTHETIC BACTERIOPHAGES IN THE TREATMENT OF CANCER” (TATUM BIOSCIENCE INC., priority 2020, published 2023).
# T1: CD47 on the surface of A20 mouse lymphoma cells (mouse (A20 mouse lymphoma cells), UniProt Q61735 19-303)
# T1 construct: whole, on cells; also called CD47 receptor; CD47 immune checkpoint
# T1 sequence (looked up): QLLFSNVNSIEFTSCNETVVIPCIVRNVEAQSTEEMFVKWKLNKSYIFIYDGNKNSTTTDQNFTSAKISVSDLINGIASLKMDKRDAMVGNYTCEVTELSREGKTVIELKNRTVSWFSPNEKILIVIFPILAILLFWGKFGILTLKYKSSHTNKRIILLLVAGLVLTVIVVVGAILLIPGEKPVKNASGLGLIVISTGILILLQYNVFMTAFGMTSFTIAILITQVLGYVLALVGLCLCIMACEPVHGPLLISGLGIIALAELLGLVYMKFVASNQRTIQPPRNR
# B1: purified anti-PD-L1 nanobody with hexahistidine and HA tags fused in C-terminal (VHH)
# VHH: QVQLVETGGGLVQPGGSLRLSCTASGFTFSMHAMTWYRQAPGKQRELVAVITSHGDRANYTDSVRGRFTISRDNTKNMVYLQMNSLKPEDTAVYYCNVPRYDSWGQGTQVTVSS
# notes: Expressed from the pTrcHis vector in E. coli BL21 (DE3), purified on Ni-NTA; also called nbPDL1 (pTAT034); not shown: hexahistidine and HA tags fused in C-terminal
# B2: synthetic bacteriophage displaying an anti-PD-L1 nanobody on pIII (MG1655+pTAT004+pTAT020) (other)
# chain: QVQLVETGGGLVQPGGSLRLSCTASGFTFSMHAMTWYRQAPGKQRELVAVITSHGDRANYTDSVRGRFTISRDNTKNMVYLQMNSLKPEDTAVYYCNVPRYDSWGQGTQVTVSSGGLPETGG
# notes: Whole phage particle; also called anti-PD-L1 synthetic bacteriophage; not shown: HA-6His dual tag linker; C-terminal fragment of coat protein pIII (gpIII-C) of bacteriophage M13
# B3: synthetic bacteriophage displaying the anti-PD-L1 nanobody inserted between the binding domain and the bacteriophage anchor domain of pIII (MG1655+pTAT033) (other)
# chain: B2 chain
# notes: Single-vector system derived from M13mp18-Kan; whole phage particle, remained infectious; also called anti-PD-L1 nanobody inserted in pIII; not shown: N-terminal part of pIII (D1/D2 domains) of bacteriophage M13; C-terminal part of pIII (gpIII-C, transmembrane region / anchor domain) of bacteriophage M13
# B4: purified anti-PD-L1 nanobody: purified anti-PD-L1 nanobody with hexahistidine and HA tags, expressed in BL21 (DE3) (protein)
# VHH: B2 chain
# modifications: left off: small tags and cut ends
# B5: synthetic bacteriophage displaying the anti-PD-L1 nanobody at the N-terminal end of pIII (MG1655+pTAT032) (other)
# chain: B2 chain
# notes: Single-vector system derived from M13mp18-Kan; also called pTAT32; anti-PD-L1 nanobody on pIII; not shown: C-terminal fragment of coat protein pIII (gpIII-C) of bacteriophage M13
# B6: synthetic bacteriophage displaying an anti-CTLA-4 anticalin on pIII (MG1655+pTAT004+pTAT030) (other)
# chain: QDSTSDLIPAPPLSKVPLQQNFQDNQFHGKWYVVGLAGNRILRDDQHPMNMYATIYELKEDKSYNVTSVISSHKKCEYTIATFVPGSQPGEFTLGNIKSYGDKTSYLVRVVSTDYNQYAMVFFKLAEDNAEFFAITIYGRTKELASELKENFIRFSKSLGLPENHIVFPVPIDQCIDG
# notes: Whole phage particle; not shown: HA-6His dual tag linker; C-terminal fragment of coat protein pIII (gpIII-C) of bacteriophage M13
# B7: synthetic bacteriophage displaying an anti-CD47 nanobody on pIII (MG1655+pTAT004+pTAT003) (other, not shown: small tags and cut ends; large carriers)
# chain: QVQLVESGGGLVEPGGSLRLSCAASGIIFKINDMGWYRQAPGKRREWVAASTGGDEAIYRDSVKDRFTISRDAKNSVFLQMNSLKPEDTAVYYCTAVISTDRDGTEWRRYWGQGTQVTVSSGGLPETGG
# notes: also called pTAT003 derived bacteriophages; nbCD47-pIII bacteriophages
# Key:
# [1] = target: T2, PD-L1 on the surface of A20 cells (mouse (A20 mouse lymphoma cells), UniProt Q9EP73 19-290); experiment: ELISA on fixed A20 cells, detection with anti-HA-HRP
# T2 construct: whole, on cells; also called PD-L1 receptor; CD274
# [2] = target: T2, PD-L1 on the surface of A20 cells; experiment: flow cytometry on A20 cells, competition with anti-PD-L1-PE (10F.9G2)
# [3] = target: T3, PD-L1 on A20 cells (Mus musculus, UniProt Q9EP73); experiment: Binding to PD-L1 on fixed A20 cells by ELISA; conditions: nanobody 1 nM to 10 μM, detection anti-HA-HRP
# T3 construct: host or cells: A20 mouse B lymphoma cells (live for flow cytometry, formalin-fixed for ELISA)
# Protocol: Assessment of anti-PD-L1 displaying bacteriophages binding activity on A20 cells by EUSA. A 96 wells plate was prepared by adding in each well 100 μL of PBS comprising 1×10^5 A20 cells. The plate was then incubated 30 min to allow sedimentation of the cells. The plate was then tilted and the PBS was carefully removed. To fix the cells to the plate, 100 μL of 10% formalin was then added, and the plate was incubated for 10 min. The fixed cells were then washed gently with 100 μL of PBS and then blocked by adding 200 μL of PBS (1% BSA, 3% milk), followed a 30 min incubation periode. The blocking buffer was removed and then 100 μL of bacteriophage PEG preparation was added to the wells. The plate was incubated 1 h and then washed three times with 200 μL of PBS. To detect the bacteriophages, 100 μL of anti-HA-HRP (Cell Signaling) 1/500 diluted in PBS (3% milk, 1% BSA) was added and the plate was incubated for 1 h. […] Then, 100 μL from each well was transferred to a new plate and optical density was measured at 450 nm.
# Assessment of anti-PD-L1 nanobody binding activity on A20 cells by EISA. […] Then, 100 μL from each well was transferred to a new plate and optical density was measured at 450 nm. […] Tumor sizes were then monitored twice a week using a precise caliper until tumors exceed 1500 mm^3 or until day 24 after the first injection. […]
# [4] = target: T4, mice CTLA-4 recombinant protein (R&D systems) (mice, UniProt P09793 36-161); experiment: ELISA on coated mouse CTLA-4, detection with anti-pVIII-HRP
# T4 construct: Coated on ELISA plates at 10 µg/mL; also called recombinant CTLA-4 protein; CTLA-4 immune checkpoint
# [5] = target: T1, CD47 on the surface of A20 mouse …; experiment: pull-down assay on A20 cells
# T2 sequence (Q9EP73 19-290): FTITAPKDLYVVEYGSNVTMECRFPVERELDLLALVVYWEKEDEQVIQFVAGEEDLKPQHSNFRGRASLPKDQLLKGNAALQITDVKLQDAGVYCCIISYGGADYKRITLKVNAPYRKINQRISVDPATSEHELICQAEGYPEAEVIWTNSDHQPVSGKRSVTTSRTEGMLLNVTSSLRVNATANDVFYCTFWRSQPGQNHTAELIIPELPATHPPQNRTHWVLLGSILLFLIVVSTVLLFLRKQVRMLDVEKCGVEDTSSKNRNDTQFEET
# T3 sequence (Q9EP73 19-290): as above
molecule,measurement,setting,value
B1,binding result,[1],binds
B2,binding result,[2],binds
B3,binding result,[2],binds
B4,purified nanobody binding activity on A20 cells (ELISA),[3],confirmed its binding activity on A20 cells
B5,binding result,[2],binds
B6,binding result,[4],binds
B7,binding result,[5],binds
